Test [1] has as its target T1, ether-a-go-go 1 voltage-gated potassium channel (hEAG1) (human) (UniProt O95259).
T1 sequence: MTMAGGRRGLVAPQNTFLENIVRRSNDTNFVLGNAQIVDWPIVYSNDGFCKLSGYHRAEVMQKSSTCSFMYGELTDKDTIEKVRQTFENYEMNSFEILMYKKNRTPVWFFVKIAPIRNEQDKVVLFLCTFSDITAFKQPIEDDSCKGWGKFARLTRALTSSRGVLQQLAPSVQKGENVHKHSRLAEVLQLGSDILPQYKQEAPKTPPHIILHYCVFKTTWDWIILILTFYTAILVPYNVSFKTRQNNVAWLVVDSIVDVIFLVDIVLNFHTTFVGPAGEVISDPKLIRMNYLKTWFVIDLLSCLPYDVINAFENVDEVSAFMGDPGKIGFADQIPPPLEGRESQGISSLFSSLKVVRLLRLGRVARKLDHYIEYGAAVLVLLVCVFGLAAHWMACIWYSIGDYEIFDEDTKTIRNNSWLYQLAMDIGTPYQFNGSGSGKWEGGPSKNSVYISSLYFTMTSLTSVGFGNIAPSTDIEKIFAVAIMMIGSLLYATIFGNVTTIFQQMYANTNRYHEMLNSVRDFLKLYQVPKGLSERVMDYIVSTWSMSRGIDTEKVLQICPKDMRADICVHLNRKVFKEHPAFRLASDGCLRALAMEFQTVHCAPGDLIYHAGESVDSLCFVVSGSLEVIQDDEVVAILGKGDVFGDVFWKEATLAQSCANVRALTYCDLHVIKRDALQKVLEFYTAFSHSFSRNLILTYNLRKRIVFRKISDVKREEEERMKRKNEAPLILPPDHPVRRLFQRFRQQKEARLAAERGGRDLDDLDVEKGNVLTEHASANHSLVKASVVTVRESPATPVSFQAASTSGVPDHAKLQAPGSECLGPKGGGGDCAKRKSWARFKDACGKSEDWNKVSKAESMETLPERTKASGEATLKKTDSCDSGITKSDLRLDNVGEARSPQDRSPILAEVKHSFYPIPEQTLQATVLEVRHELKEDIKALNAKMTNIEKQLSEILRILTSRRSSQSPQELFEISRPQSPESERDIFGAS

In test [2] the target is T1, ether-a-go-go 1 voltage-gated potassium channel (hEAG1) (human). This is another data set of the same source.

For the substance “BjSP (from UniProt Q5W959 25-258) (enzyme)”, the inhibition of hEAG1 current at 5 µM (two-electrode voltage clamp, Xenopus laevis oocytes) in test [1] came to 9.2%.
The same measure, in the same setting: then “gyroxin_B1.3 (from UniProt B0FXM1 25-262) (enzyme)”, with 58%.
Take mutant collinein-1 (His43Arg) (enzyme): the IC50 of inhibition of hEAG1 current (two-electrode voltage clamp, Xenopus laevis oocytes) in test [2] stood at 4.3 µM.
On the same count and under the same terms, as for native collinein-1 (enzyme), the figure is 4.2 µM; as for recombinant collinein-1 (enzyme), 2.5 µM.
